Results reported in the supplement of paper PMC7877785.
± gives the uncertainty stated by the source.

Assay: self-splicing fitness, log relative to wild type (ln ratio); higher = more splicing; Tetrahymena group I intron in knt gene, E. coli kanamycin selection, DiMSum; sequences stand for … in CUCUCU…GGAGGGAAAAGUUAUCAGGCAUGCACCUGGUAGCUAGUCUUUAAACCAAUAGAUUGCAUCGGUUUAAAAGGCAAGACCGUCAAAUUGCGGGAAAGGGGUCAACAGCCGUUCAGUACCAAGUCUCAGGGGAAACUUUGAGAUGGCCUUGCAAAGGGUAUGGUAAUAAGCUGACGGACAUGGUCCUAACCACGCAGCCAAGUCCUAAGUCAACAGAUCUUCUGUUGAUAUGGAUGCAGUUCACAGACUAAAUGUCGGUCGGGGAAGAUGUAUUCUUCUCAUAAGAUAUAGUCGGACCUCUCCUUAAUGGGAGCUAGCGGAUGAAGUGAUGCAACACUGGAGCCGCUGGGAACUAAUUUGUAUGCGAAAGUAUAUUGAUUAGUUUUGGAGUACUCGUGGUCG
In short: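 DiMSum derived fitness as the error-weighted combination of fold changes across replicates, kanamycin versus no kanamycin, normalised to wild type. E. coli BL21(DE3) held the library, which randomised all eight P1ex-region intron nucleotides within the knt kanamycin-resistance gene on pET-22b(+). Six replicate transformations grew overnight at 37°C or 30°C on LB agar with or without 25 μg/mL kanamycin, also containing 100 μg/mL carbenicillin, 50 μM IPTG and 0.2% rhamnose, and pooled colonies were amplicon-sequenced on an Illumina HiSeq 2500.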

| Sequence | self-splicing fitness (ln) (30 °C) | self-splicing fitness (ln) (37 °C) |
| --- | --- | --- |
| UAGCAGCAAUAUUACGAGCC | -2.62 ± 0.23 | -1.9 ± 0.3 |
| AACUAGCAAUAUUACGAUAG | -3.19 ± 0.19 | -1.77 ± 0.13 |
| CCAUAGCAAUAUUACGUGCG | -2.49 ± 0.15 | -0.772 ± 0.15 |
| GACUAGCAAUAUUACGGUCC | – | -1.49 ± 0.42 |
| CGUCAGCAAUAUUACGACGU | -3.23 ± 0.17 | -1.93 ± 0.14 |
| UAGUAGCAAUAUUACGUUUC | -1.16 ± 0.38 | -1.5 ± 0.41 |
| AACAAGCAAUAUUACGGACG | -1.3 ± 0.061 | -0.887 ± 0.086 |
| GGUUAGCAAUAUUACGAUAC | -0.314 ± 0.22 | -0.0363 ± 0.19 |
| GGACAGCAAUAUUACGAGGG | -3.16 ± 0.14 | -2.28 ± 0.15 |
| ACUGAGCAAUAUUACGCCCU | -1.87 ± 0.33 | -1.05 ± 0.44 |
| AAGAAGCAAUAUUACGACUU | -0.363 ± 0.061 | -0.819 ± 0.078 |
| UUCCAGCAAUAUUACGACGC | -3.25 ± 0.24 | -3.03 ± 0.17 |
| UCCGAGCAAUAUUACGAUGU | -3 ± 0.22 | -1.87 ± 0.17 |
| AGCAAGCAAUAUUACGAACG | -0.526 ± 0.083 | -0.449 ± 0.1 |
| AAGCAGCAAUAUUACGUACG | -2.18 ± 0.12 | -0.645 ± 0.13 |
| UCCUAGCAAUAUUACGACAC | -0.225 ± 0.29 | – |
| ACUCAGCAAUAUUACGGUAG | -3.73 ± 0.13 | -2.92 ± 0.15 |
| AUCUAGCAAUAUUACGACAC | -1.02 ± 0.11 | 0.13 ± 0.13 |
| GCAUAGCAAUAUUACGGCCU | -1.44 ± 0.11 | -0.683 ± 0.11 |
| GUAGAGCAAUAUUACGUUUU | -2.47 ± 0.16 | -1.36 ± 0.18 |

| Sequence | self-splicing fitness (ln) (30 °C) | self-splicing fitness (ln) (37 °C) |
| --- | --- | --- |
| UUAAAGCAAUAUUACGGAGG | -1.34 ± 0.12 | -1.27 ± 0.17 |
| ACGCAGCAAUAUUACGAAAG | -3.33 ± 0.21 | -2 ± 0.19 |
| GCCCAGCAAUAUUACGUGUA | -0.725 ± 0.046 | -0.0902 ± 0.058 |
| GUAGAGCAAUAUUACGUUAC | -2.63 ± 0.18 | -0.785 ± 0.14 |
| AGCAAGCAAUAUUACGAAAU | -2.42 ± 0.098 | -1.51 ± 0.12 |
| CCUUAGCAAUAUUACGAAUC | -2.65 ± 0.36 | -1.38 ± 0.34 |
| UCUUAGCAAUAUUACGCCUU | – | -1.86 ± 0.3 |
| AGAGAGCAAUAUUACGGUCC | -2.21 ± 0.3 | -0.974 ± 0.46 |
| GAAUAGCAAUAUUACGAAUC | -2.32 ± 0.14 | -0.98 ± 0.14 |
| UCCGAGCAAUAUUACGAAAA | – | -1.07 ± 0.37 |
| GCGGAGCAAUAUUACGUUUG | -2.86 ± 0.17 | -2.48 ± 0.27 |
| UUGAAGCAAUAUUACGCCCU | -0.0294 ± 0.13 | 0.698 ± 0.16 |
| AGAUAGCAAUAUUACGCACC | 0.321 ± 0.21 | 0.267 ± 0.34 |
| CAUAAGCAAUAUUACGAAUU | -3.44 ± 0.27 | -1.52 ± 0.22 |
| CGUCAGCAAUAUUACGACAU | -0.647 ± 0.012 | -0.0443 ± 0.032 |
| GGAUAGCAAUAUUACGUCCG | -0.616 ± 0.17 | -0.972 ± 0.2 |
| CAUCAGCAAUAUUACGAAGG | -0.555 ± 0.048 | -0.58 ± 0.066 |
| UCUUAGCAAUAUUACGUAAC | -3.34 ± 0.26 | -1.95 ± 0.32 |
| UUAUAGCAAUAUUACGACUG | -1.05 ± 0.14 | -0.662 ± 0.15 |
